The results in this text go back to patent publication US10059950B2, “Compositions comprising an internalizing nucleic acid molecule, and their methods of use” (B3 BIO, INC., priority 2012, dated 2018).

In the oligonucleotide strings, read from the 5' end, every base follows the letter of its sugar. An asterisk marks phosphorothioate; unmarked linkages are phosphodiester. Other units and linkages are bracketed, terminal groups are in braces. A string of capitals states the bases alone. r = 2'-OH (RNA); f = 2'-fluoro

The test system of data set [1] is PrEC human primary prostate epithelial cells. Briefly: Flow cytometric binding and internalization assay, PrEC. To be noted: nonmalignant. Format: cell-based. The procedure:
(§1) In illustrating a screening process for internalization, from clones selected for further analysis from the selection process, a flow cytometric-based assay for binding and/or internalization was utilized. Typically, the assay was performed by incubating 200 nM of each clone with 5×10^5 target cells in 100 ul PBS containing 0.5% bovine serum albumin (BSA) in a 13 mm tube for 2 hours @ 37° C. A first portion of the cells was then treated with RNAse to remove any of the clone remaining bound to the surface of the cells, so as to allow detection and quantitation of internalized clone (i.e., measuring internalization). In parallel, a second portion of the cells was treated with PBS containing 0.5% BSA (lacking added RNase activity to enzymatically cleave […]), so as to allow detection and quantitation of clone remaining bound to the cell surface, as well as internalized clone (i.e., measuring binding and internalization). […] Additionally, fluorescence of unstained cells was measured, as a control, to quantitate any background fluorescent properties of the cells themselves as encountered in analyses by flow cytometry (“Unstained”), as opposed to fluorescent signal mediated by the RNA molecules further modified to include Alexa 647. […] The units of fluorescence in Table 5 represent mean fluorescence (“Mean”). […]
In general terms: Flow cytometry measures light scatter and fluorescence of single cells or particles in a stream.

The test system of data set [2] is HCC1143 human, triple negative, breast carcinoma. Briefly: Flow cytometric binding and internalization assay, HCC1143. In kind it is cell-based. Conditions: HCC1143, malignant. The procedure: as §1
Data set [3] relates to WIL-2 B lymphoblastoid cell line transformed with Epstein Barr virus. Nature of the data set: Flow cytometric binding and internalization assay, WIL-2. Format: cell-based, human. To be noted: WIL-2, transformed cells. As to the method:
as §1

Data set [4] relates to HS578T Human, triple negative, highly metastatic breast carcinoma. Briefly: Flow cytometric binding and internalization assay, HS578T. Format: cell-based. Conditions: malignant. As to the method:
as §1

The test system of data set [5] is DU145 human prostate cancer, metastatic. Briefly: Flow cytometric binding and internalization assay, DU145. Format: cell-based. Conditions: DU145, malignant. As to the method: as §1
For data set [6], the system named is A549 human lung adenocarcinoma. Nature of the data set: Flow cytometric binding and internalization assay, A549. In kind it is cell-based. Conditions: A549, malignant. The procedure:
as §1

The test system of data set [7] is T47D human ductal breast epithelial tumor cell line. Briefly: Flow cytometric binding and internalization assay, T47D. In kind it is cell-based. To be noted: malignant. The procedure: as §1
Data set [8] has as its system LNCaP lymph node metastatic lesion of human prostate adenocarcinoma. Nature of the data set: Flow cytometric binding and internalization assay, LNCaP. Format: cell-based. To be noted: malignant. As to the method:
as §1

The subject of data set [9] is K562 human chronic myelogenous leukemia. Nature of the data set: Flow cytometric binding and internalization assay, K562. Format: cell-based. To be noted: K562, malignant. As to the method:
as §1

The subject of data set [10] is human prostate cancer cell line PC-3. Nature of the data set: Flow cytometric-based screening assay for internalization in PC-3 cells. Conditions: for internalization into cells (conclusion from Table 5): PC-3, in words; for Fold Increase (mean fluorescence of clone / unstained cells) / Mean (mean fluorescence): Table 5, 200 nM Alexa 647-modified clone, 2 hours @ 37° C., PC-3; for Mean (mean fluorescence): flow cytometry; for Fold increase: Table 9, PC3, malignant. In kind it is cell-based. As to the method: In illustrating a screening process for internalization, from clones selected for further analysis from the selection process, a flow cytometric-based assay for binding and/or internalization was utilized. Typically, the assay was performed by incubating 200 nM of each clone with 5×10^5 target cells in 100 ul PBS containing 0.5% bovine serum albumin (BSA) in a 13 mm tube for 2 hours @ 37° C. A first portion of the cells was then treated with RNAse to remove any of the clone remaining bound to the surface of the cells, so as to allow detection and quantitation of internalized clone (i.e., measuring internalization). In parallel, a second portion of the cells was treated with PBS containing 0.5% BSA (lacking added RNase activity to enzymatically cleave […]), so as to allow detection and quantitation of clone remaining bound to the cell surface, as well as internalized clone (i.e., measuring binding and internalization). Following further washes with phosphate-buffered saline, the cells were fixed in 1% formaldehyde and then subjected to analysis on a flow cytometer using commercially available analysis software. In performing analyses by flow cytometry, several assay controls were used. As an assay control representing either no or background (e.g., non-specific) internalization, an RNA molecule resulting from a selection process for binding a molecule not detectably expressed on target cells was used. The assay control RNA molecule was further modified with Alexa 647, and then used for further characterization of clones from the selection process described herein. For ease of description and reference for this Example, this assay control RNA molecule is referred to herein as Negative Control 1 (see, e.g., Table 5). As an additional assay control that represents either no or background internalization, used was an RNA molecule from the starting library which was chosen from the library prior to beginning a selection method described herein, and that was further modified with Alexa 647. This assay control RNA molecule is referred to herein as Negative Control 2 (see, e.g., Tables 5, 7, and 8). Additionally, fluorescence of unstained cells was measured, as a control, to quantitate any background fluorescent properties of the cells themselves as encountered in analyses by flow cytometry (“Unstained”), as opposed to fluorescent signal mediated by the RNA molecules further modified to include Alexa 647. Shown in Table 5 are the results of analyses by flow cytometry in which measured and quantitated was the ability of clones, selected on the basis of sequence convergence, to internalize into target cells represented by human prostate cancer cell line PC-3. The units of fluorescence in Table 5 represent mean fluorescence (“Mean”). The fold increase (determined by dividing the mean fluorescence of a clone by the mean fluorescence of unstained cells) is an indicator of the ability of a clone, or a clone which has been further modified to include an effector moiety, to internalize into the target cells (Table 5; “Fold Increase”).
The truncations, illustrated in Table 6, were each further modified with a detectable moiety, Alexa 647, and analyzed by a flow cytometric-based screening assay for internalization using the methods outlined in Example 2, to determine minimal sequences that maintain the full ability to internalize into human prostate cancer cells. Shown in Table 7 are the results of analyses by flow cytometry in which measured and quantitated was the ability of each truncation to internalize into target cells represented by human prostate cancer cell line PC-3. The units of fluorescence in Table 7 represent mean fluorescence intensity (“Mean”). […]

For data set [11], the system named is A431 human epidermoid carcinoma. Briefly: Flow cytometric binding and internalization assay, A431. Conditions: A431, malignant. In kind it is cell-based. The procedure: as §1
In data set [12] the test system is human primary mammary epithelial cells. Nature of the data set: Flow cytometric binding and internalization assay, mammary epithelial cells. In kind it is cell-based. To be noted: nonmalignant. The procedure: as §1
The test system of data set [13] is MCF7 human breast adenocarcinoma. Briefly: Flow cytometric binding and internalization assay, MCF7. Format: cell-based. Conditions: MCF7, malignant. As to the method:
as §1

Data set [14] has as its system PBMC (unstim) human, unstimulated peripheral blood mononuclear cells. Nature of the data set: Flow cytometric binding and internalization assay, PBMC. To be noted: nonmalignant. Format: cell-based. The procedure:
as §1

For data set [15], the system named is HCC1937 human, triple negative, primary breast carcinoma. Nature of the data set: Flow cytometric binding and internalization assay, HCC1937. In kind it is cell-based. To be noted: HCC1937, malignant. The procedure: as §1
Data set [16] has as its system SKBR3 human breast adenocarcinoma. Nature of the data set: Flow cytometric binding and internalization assay, SKBR3. In kind it is cell-based. Conditions: SKBR3, malignant. The procedure: as §1
The test system of data set [17] is 22Rv1 Human prostate xenografts in mice. Briefly: Flow cytometric binding and internalization assay, 22Rv1. In kind it is cell-based. To be noted: 22Rv1, malignant. The procedure: as §1
The mark [18] stands for this setting: Table 7, truncations modified with Alexa 647, PC-3.

B1: GGGAGGACGAUGCGGUACUUUCGGGCUUUCGGCAACAUCAGCCCCUCAGGACGCAAUUUCUCCUACUGGGAUAGGUGGAUUAU (nucleic acid)
chain: rGrGrGrArGrGrAfCrGrAfUrGfCrGrGfUrAfCfUfUfUfCrGrGrGfCfUfUfUfCrGrGfCrArAfCrAfUfCrArGfCfCfCfCfUfCrArGrGrAfCrGfCrArAfUfUfUfCfUfCfCfUrAfCfUrGrGrGrAfUrArGrGfUrGrGrAfUfUrAfU
modifications: Alexa 647 label via hybridized DNA oligo, further chemistry not fully specified
notes: tested hybridized to Alexa647 DNA oligo
With B1, the Fold increase is 2.6 in data set [1]; 2.1 in data set [2]; 20.6 in data set [3]; 9.8 in data set [4]; 6.1 in data set [5]; 3.7 in data set [6]. Further, the Fold increase in data set [7] is given as 25.8; in [8], 6.1; in data set [9], 23.2; in data set [10], 9.4; in [11], 6.9; in data set [12], 5.7. Besides, the Fold increase in data set [13] was determined as 31.0; in data set [14] it was 2.4; in data set [15], 11.8; in data set [16], 14.3; in [17], 14.8. Besides, the “internalization into cells (conclusion from Table 5)” value in [10] is “mediate internalization into cells”. The “Fold Increase (mean fluorescence of clone / unstained cells)” value in [10] is given as 8.3. Also, the “Mean (mean fluorescence)” value in data set [10] was found to be 665. Moreover, the “Fold increase (mean fluorescence intensity / unstained cells)” value in data set [10] (setting [18]) was 11.3. Also, the “Mean (mean fluorescence intensity)” value in data set [10] (setting [18]) was 907.

B2: D11: RNA iNA clone from Round 14 toggle selection, variable region SEQ ID NO:20 UCCCCGGAUUUCGGAUACGAUCCCUCAUCCCUUGACCGCA, 2′ fluoro pyrimidines (nucleic acid)
chain: rGrGrGrArGrGrAfCrGrAfUrGfCrGrGfUfCfCfCfCrGrGrAfUfUfUfCrGrGrAfUrAfCrGrAfUfCfCfCfUfCrAfUfCfCfCfUfUrGrAfCfCrGfCrArAfUfUfUfCfUfCfCfUrAfCfUrGrGrGrAfUrArGrGfUrGrGrAfUfUrAfU
modifications: Alexa 647 attached for internalization assay, further chemistry not fully specified
As for B2, the Fold increase in data set [1] turned out to be 2.7; in data set [3] it was 11.4; in [6], 3.2; in data set [9] it was 19.0; in [10], 5.8; in [13], 11.7. The “internalization into cells (conclusion from Table 5)” value in data set [10] is reported as “mediate internalization into cells”. Also, in data set [10], the “Fold Increase (mean fluorescence of clone / unstained cells)” value is reported as 5.8. In data set [10], the “Mean (mean fluorescence)” value is listed as 460.
